Patent US7230085B2, “Anti-DOTA antibody” (Immunomedics, Inc., priority 2001, dated 2007)
Where “and” joins values, the source holds several entries; their conditions need not be identical. Equal values may be shown once. Entries after “also recorded” stand apart in the source; their conditions may differ.

Columns and labels:
[1] = tested on: indium-DOTA alone; test: LG1 binding to indium-DOTA alone
Text: (§1) To determine the essential features that are important to elicit LG1 binding, labeled DOTA (indium-111) was linked to a hapten, via lysine residues, on either the alpha (DOTA-Lys(HSG)-D-Tyr-Lys(HSG)-NH2) or epsilon (biotin-D-Phe-D-Lys[DOTA]) positions of one of the DOTA carboxy groups. LG1 did bind the epsilon-linked indium-DOTA, but not the alpha-linked indium DOTA. […] Thus, the antibody of the current invention is “universal” in that it may bind to any DOTA-metal complex with a pendant N-alkylacetamide group, regardless of the type of metal with which DOTA is complexed. As used herein, the phrases “universal anti-DOTA antibody” or “universally binds” are used to mean an antibody that binds to any DOTA or DOTA-metal complex with a pendant N-alkylacetamide group.

[2] = tested on: hLL2; test: ELISA binding of LG1 to hLL2
Description: (§2) LG1 is tested by ELISA for binding to hLL2 and a panel of different metal complexes of DOTA-hLL2. The capture proteins are diluted to 10 μg/ml, and dilutions of LG1 are assayed. Binding is shown using a peroxidase-conjugated goat anti-mouse IgG Fc specific antibody.

[3] = tested on: hMN-14-DOTA-yttrium-90; test: Qualitative binding on size-exclusion HPLC; details: SE-HPLC
[4] = tested on: indium-111-DOTA-Phe-Lys(HSG)-D-Tyr-Lys(HSG)-NH2; test: Qualitative binding on size-exclusion HPLC
Text: as §1
(§3) The msAb, LG1×hMN-14 (Fab′×Fab) is shown by the same analysis to bind to hLL2-DOTA-yttrium.

[5] = tested on: biotin-D-Phe-D-Lys(DOTA-indium-111); test: Qualitative binding on size-exclusion HPLC; details: epsilon-linked indium-DOTA
Text: as §1, §3

[6] = Isoelectric focusing of purified LG1; assay type: physicochemical
Description: LG1 cells are expanded and adapted to grow in H-SFM media in serum-free conditions. The antibody LG1 is isolated from the culture media by affinity chromatography on Protein G Sepharose with a yield of ^˜50 mg of IgG per liter of culture media. The purified antibody is analyzed by SDS polyacrylamide electrophoresis, isoelectric focusing, and its isotype is determined by ELISA with a commercially available kit (Southern Biotechnology, Birmingham, Ala.).

[7] = tested on: metal complexes of DOTA-hLL2; test: ELISA binding of LG1 to DOTA-hLL2 metal complexes
Description: Immunocompetent mice were immunized mice with the macrocyclic chelate DOTA, previously coupled to a humanized immunoglobulin (hIgG). A number of mice were injected and the harvested splenocytes fused with the mouse myeloma cell line SP2/0, according to a standard technique. A total of 1800 clones were screened by ELISA for reactivity with DOTA-conjugated hIgG and hIgG alone. Initially, 25 clones were identified as secreting an IgG that bound to the IgG-DOTA conjugate, but not to the IgG. After being sub-cloned three times, only one hybrid, termed LG1, remained positive and this was adapted to grow in serum-free media. […] LG1 was purified from culture supernatant with a yield of ^˜50 mg/liter of media. […] These metals include gadolinium, gallium, indium, lead, lutetium and yttrium. Additionally, LG1 has a high affinity for a variety of DOTA compounds, showing strong reactivity starting at concentrations of ^˜1 ng/mL (^˜10^−9M), compared to previously produced anti-DOTA antibodies that had affinities measured in microgram amounts.
as §2

[8] = tested on: hLL2; test: Qualitative binding on size-exclusion HPLC; details: SE-HPLC
Text: as §3

[9] = tested on: hLL2-DOTA; test: Qualitative binding on size-exclusion HPLC; details: SE-HPLC
Text: as §3

[10] = tested on: hLL2-DOTA-yttrium; test: Qualitative binding on size-exclusion HPLC; details: SE-HPLC
Text: as §3

[11] = tested on: BSA-DOTA-Yttrium; test: Inhibition of LG1 binding to BSA-DOTA-Yttrium by hLL2-DOTA metal complexes (ELISA); details: LG1 0.1 μg/ml; inhibitors 10 to 0.0001 μg/ml
Description: The binding of LG1 to BSA-DOTA-Yttrium is also tested in the presence of a panel of hLL2-DOTA metal complexes by incubating LG1 at concentration 0.1 μg/ml with hLL2 and the DOTA-hLL2 conjugates, at concentration 10 to 0.0001 μg/ml, and then adding to ELISA plates coated with BSA-DOTA-Yttrium.

B1: LG1: murine monoclonal anti-DOTA antibody, IgG2b with a lambda light chain (antibody, V domains shown)
VH: EVMLVESGGGLVKPGGSLTLSCAASGFTFTAHAMSWVRQTPEKRLEWVATISGGGTYTYFPDSFQGRFTISSDNAKNTLYLQMSSLRSEDTSMYFCTRHGDYRYAFGYWGQGTLVTVSA
VL: VVTQESALTTSPGETVTLTCRSSSGAVTTNNYANWVQEKPDHLFTGLIGGTNNRAPGVPARFSGSLIGDKAALTITGAQTEDEAIYFCALWFSDHWVFGGGTELTVLG
[1]
  binding to indium-DOTA alone: did not bind
[2]
  binding to hLL2: no binding
[3]
  binding to hMN-14-DOTA-yttrium-90: positive binding
[4]
  binding to alpha-amino-linked indium-111-DOTA peptide: no binding and not
[5]
  binding to biotin-D-Phe-D-Lys(DOTA-indium-111): positive binding; also recorded: did bind
[6]
  PI: 5.85-6.85
[7]; ELISA, gadolinium, gallium, indium, lead, lutetium, yttrium and no metal
  binding to DOTA-hLL2 and its metal complexes: Equivalent binding; also recorded: Identical binding; also recorded: bind equally; also recorded: bind equivalently well; also recorded: binds to gadolinium-DOTA complexes as well as it binds to the yttrium-DOTA complexes
[7]; ELISA, variety of DOTA compounds
  concentration at which strong reactivity starts: ~1 ng/mL and ~10^−9 M
[7]; estimated by ELISA method to determine ligand binding affinity, read-out: affinity towards many different metal-DOTA complexes
  Kd: 1 to 100 pM
[8]
  binding to hLL2 itself: no binding
[9]
  binding to hLL2-DOTA: positive binding
[10]
  binding to hLL2-DOTA-yttrium: positive binding
[11]
  specificity in inhibition assay: anti-DOTA specific, independent of the metal being bound in the chelate ring
